# From the nanobody polyreactivity screen of Harvey et al. (2022)
# Assay: yeast display, Sf9 membrane polyspecificity reagent, FACS + sequencing; frameworks hold sequencing errors
# Summary of the method: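 A synthetic nanobody library was expressed on Saccharomyces cerevisiae BJ5465 by galactose induction for 36–48 hours. The library was stained for 1 hour at 4 °C with 10% biotinylated, detergent-solubilized Sf9 membrane reagent and enriched with streptavidin microbeads before FACS. Low and high (top ~1%) gates were set on anti-HA fluorescence for expression and streptavidin fluorescence for reagent binding, and each polyreactivity label reflects the gate of origin.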
row,Sequence,polyreactivity (PSR sort gate)
1,QVQLVESGGGLVQAGGRHRLTCAASGYTFDWYTMGWYRQAPGTERELVAAISASGVRTYYADSVKGRFTISSDNAKNSVYLQMNSLKPEDTAVYYCYRVYSTSRITEYEFDYWGQGTQVTVSS,low polyreactivity
2,QVQLVESGGGLVQAGGRLLLSCAASGSTFTHYAMGWYRQAPGKERELVPAISWGAGSTYYADSVKGRFTNSRDNAKNTVYLQMNSLKPEDTAVYYCAAYLYRYGHKYYSWGQGTQVTVSS,high polyreactivity
3,QVQLVESGGGLVQAGGRLPLSCAASGFIFGDYTMGWYRQAPGKERELVASISRRGGSTTYADSVKGRFTISRDNAMNTVYLQMNSLKPEDTAVYYCAARSRPSGSYNRHGPVDYWGQGTQVTVSS,high polyreactivity
4,QVQLVESGGGLVQAGGRLRISCAASGFTFDLYAMGWYRQAPGKERELVAAISWSGGSTRYADSVKGRFTISRDNAKNTVYLQMNSLKPEDTAVSYCARQPRLYFKGKLYGYWGQGTQVTVSS,high polyreactivity
5,QVQLVESGGGLVQAGGRLRISCAASGSIFYLYARGWYRQAPGKERELVPVITGSGGSTYYADSVKGRFTISRDNSKYTVYLQMNSLKPVDTAVYYGAADYYWGYDWGQGTQVTVSS,low polyreactivity
6,QVQLVESGGGLVQAGGRLRISCAASGSTFLDNAMGWYRQAPGKERELVASITSSGGNTYYADSVKGRFTISRDNAKNTVYLQMNRLKPEDTAVYYCAADAASYWGSNSANYDYDYWGQGTQVTVSS,low polyreactivity
7,QVQLVESGGGLVQAGGRLRISCAASVRIFGVNAMGWYRQAPGKERELVAVISSGGSTYYADSVKGRFTISRDNAKNTVYLQMNSLNPEDTAVYSCYAVVGRWFPYNLSDYWGQGTQVTVSS,low polyreactivity
8,QVQLVESGGGLVQAGGRLRLGCAASGSTYLYNAMGLYRQAPGKERELVAAISWTGGSTYYADSVKARYTISRDNAKNTVYLQMNSLKPEDTAVYYCNSLSVPDYDYWGHGTQVTVSS,high polyreactivity
9,QVQLVESGGGLVQAGGRLRLICAASARTLDRNAIGWYRQAPGEEREFVAAISSSGDSTYADSVKGRFTISRDNAKNTVYLQMNSLKPEDTAVYYCNAEEKVTYSASYFWVYDAMDHWGQGTQVTVSS,low polyreactivity
10,QVQLVESGGGLVQAGGRLRLICAASGRIYGYNTMGWYRQAPGKERDFDAAINSGGRTYYADSVKGRFTISRDNAKNTVYLQMNSLKPEDTAVYYCAAGKGRWISGLYYGARYDYWGQGTQVTVSS,high polyreactivity
11,QVQLVESGGGLVQAGGRLRLICAASGSILRYAMGWYIQAPGKERELVAAISYGGGSTYYADSVKGRFTISRDNAKNTVYLQMNSLKPEDTAVYYCNARQYVWYPYEYWGQGTQVTVSS,high polyreactivity
12,QVQLVESGGGLVQAGGRLRLNCAASVITFPYNAMGWYRQATGKERELVAAITRSGASTYYADSVKGRFTISRDNSKNTVYVQMNSLKPEDTAVYYCAAKVIGRPRPYYYWGQGTQVTVSS,high polyreactivity
13,QVQLVESGGGLVQAGGRLRLSCAASGFIFAWYAMGWYRQAPGKEMELVAAITWSAGSTYYADSVKGRFTISRDNAKNTVFLQMNSLKPEVTAVYYCAADAWYYSIYRGGDFWGQGTQVTVSS,low polyreactivity
14,QVQLVESGGGLVQAGGRLRLSCAASGFIFDSNTMGWYRQAPGKERELVAGITRRGGSTYYADSVKGRFTISRDNAKNSVYLQMNSLNPEDTAVYYCATAGTYTGGEGYWGQGTQVTVSS,high polyreactivity
15,QVQLVESGGGLVQAGGRLRLSCAASGFIFPVYAMGWYRQAPGKERELVASITTGGSTNYADSVKGRFTISRDNAKNTVYLQMNSLKPEDTAVYYCNKDTPASLANQYNYWGQGTQVTVSS,low polyreactivity
16,QVQLVESGGGLVQAGGRLRLSCAASGFIFSNYAMGWYRQAPGKERELVAAISKSGGGTSYADSVKGRFTISRDTAMNTVYLQMNSLKPEDPAGYYCAARVRQIRVDYWGQGTQVTVSS,high polyreactivity
17,QVQLVESGGGLVQAGGRLRLSCAASGFIFYYNTMGWYRQAPGKERELVAAISSGGRTYYADSVKGRFTISRDNAKNTVYLQMNSLKPEDTAVYYCNVVTYVKYGYWGQGTQVTVSS,high polyreactivity
18,QVQLVESGGGLVQAGGRLRLSCAASGFIIVYYAAMGWYRQAPGKERELVAAISSRDDSTTYADSVKGRFTISRDNAKNTVYLQMNSLKPEDTAVYYCNADLGGFYYVYAYNYWGQGTQVTVSS,low polyreactivity
19,QVQLVESGGGLVQAGGRLRLSCAASGFSFSLYGMGWYRQAPGKERELVAAIRSGGSPNYADSVKGRFTISRDNAKNTVYLQMNSLKPEDTAVYYGATDIHSVHNNRDKHDYDYWGQGTQETVSS,low polyreactivity
20,QVQLVESGGGLVQAGGRLRLSCAASGFTFNWYDMGWYRQAPGKERELVATISTGGGTNYADSVKGRFTITRYNAKNTVYLQMNSLKPEDSAVYYCAADGSAGYLWGYDFEGVYWGQGTQVTVSS,high polyreactivity
21,QVQLVESGGGLVQAGGRLRLSCAASGFTFRRYTMGWYRQAPGKERELVAVISASGGSTYYADSEKGRFTISRDNAKNTVYLQMNSLKPEDTAVYYCNAVGTPYGLDEYWGQGTQVTVSS,high polyreactivity
22,QVQLVESGGGLVQAGGRLRLSCAASGFTFVRNTMGWYRQAPGKDRELVAAISRSGGSTYYADSVKGRFTISRDNAKNTVYLQMNSLKPEDTAVYYCNAYRYLHYDWGQGTQVTVSS,high polyreactivity

row,Sequence,polyreactivity (PSR sort gate)
1,QVQLVESGGGLVQAGGRLRLSCAASGFTIPYKAMGWYRQAPGKERELVAAISRSGTRTYYADSVKGRFTISRDNAKNTLYIQMNSLKPEDTAVYYCAKDTIGGASPHYYWGKGTQVTVSS,high polyreactivity
2,QVQLVESGGGLVQAGGRLRLSCAASGITFTYYSMGGYRQAPGKERELVAAITDDGNTNYADSVKGRFTISRDNAKNTVYLQMNSLIPEDTAVYYCAADLLGIPDYEYWGQGTQVTVSS,low polyreactivity
3,QVQLVESGGGLVQAGGRLRLSCAASGNTFDYYAMGWYRPAPGKERELVAAITRGGSTNYADSVKGRFTISRDNAKNTVYLQMNSLKPEDTAVYYCAAEQRAPRFADYDYWGQGTQVTVSS,low polyreactivity
4,QVQLVESGGGLVQAGGRLRLSCAASGRIFGYYAIGWYRQAPGKERELVARISRGGSTYYADSVKGRFTISRDNAKNTVYLQMNSLKPEETAVYSCAATRSGYTSYTDDSGGQGTQVTVSS,high polyreactivity
5,QVQLVESGGGLVQAGGRLRLSCAASGRIFKWYPMGLYRQAPGKERELVAAITSGGSTYYADSVKGRFTISRDNAKNTVYLQMNSLNPEDTAVYYCAAPVYLYGTVGRGDYWGQGTQVTVSS,high polyreactivity
6,QVQLVESGGGLVQAGGRLRLSCAASGRIFRWNPMGWYRPAPGIERELVAAISASGGRTNYADSVKGRFTISRDNAKNTVYLQMKSLKPEDTAVYYCAAGPVYYYVPIGYDYWGQGTQVTVSS,high polyreactivity
7,QVQLVESGGGLVQAGGRLRLSCAASGRIFSDYAMGWYRQAPGKERELVAVITRGGDNTHYADSVKGRFSISRDNAKNTVYLQMNSLKAEDTAVYYCAAGFVYFRLRRYFWRDYCGQGTQVTVSS,low polyreactivity
8,QVQLVESGGGLVQAGGRLRLSCAASGRIFSYNAMGWYRQAPGKERELVAGITSGGRTYYADSVKGRFTISRDNAKNTVYLLIYSLKPEDTAVYYCGARYVPARSGYYYWGQGTQVTVSS,high polyreactivity
9,QVQLVESGGGLVQAGGRLRLSCAASGRIFYWNVMGWYRPAPGKERELVAAISSSGASTSYADSVKGRFTISRDNAKNTVYLQMNSLKPEDTAVYYCAARTRRNYRQYNYWGQGTQVTVSS,high polyreactivity
10,QVQLVESGGGLVQAGGRLRLSCAASGRILRWYTMGWYRQAPGKERELVAAITSRGGSTYYADSVKGRFTISRDNAKNTVYLQMNSLKPEDTAVYYCAAVSWYTRLTYYYWGQGTQVTVSS,high polyreactivity
11,QVQLVESGGGLVQAGGRLRLSCAASGRILYLNAMGWYRQAPGKERELVAAITKSGGSTYYADSVKGRFTISRDNAKNTVYLQMNSLKPEDTAVYYCAAEWVYYDYWQRFLYIDYDYWGQGTHVTVSS,high polyreactivity
12,QVQLVESGGGLVQAGGRLRLSCAASGRTCGYYTMGWYRQAPGKERELVATIRWSGGSTYADSVKGRFTISRDNAKNTVYLQMNSLKPEDTAVYYCAARNRIKWGQGTQVTVSS,high polyreactivity
13,QVQLVESGGGLVQAGGRLRLSCAASGRTFARYDRGWYRQAPGKELVLVAGMNGDGGSTNYADSVKGRFTISRDNAKNSVYLQMNSLKPEDTAVYYCNVVQEDRTLHVSIKQLSDHWGQGTQVTVSS,low polyreactivity
14,QVQLVESGGGLVQAGGRLRLSCAASGRTFATNTMGWYIQAPGKEREFVAAISRGGVSTSYADSVKGRFTISRDNAKNTVYLQMNSLKPEDTAVYYCAANHYGFNRNHRHTYVYWGQGTQVTVSS,high polyreactivity
15,QVQLVESGGGLVQAGGRLRLSCAASGRTFAYYAMGWSRQAPGKERELVAAITRGGSTYYADSVKGRFTISRDNAKNTVYLQMNSLKPEDTAVYYCAAATSPYQDDYWGQGTQVTVSS,low polyreactivity
16,QVQLVESGGGLVQAGGRLRLSCAASGRTFGYNFMGWYRQAPGKERELVAAISSSGGSTYYADSVKGRFTISRDNGMNTVYLQMNSLKREDTAVYYCNARRGRASGMDYWGQGTQVTVSS,high polyreactivity
17,QVQLVESGGGLVQAGGRLRLSCAASGRTFKDYAMGWYRQAPGKERELVAGINGSGGSTYYADSVKGRFTISRDNAKNTVYLQMNSLKPEDTAVYYCNADFGYWWDGRRYDYWGQGTQVTVSS,low polyreactivity
18,QVQLVESGGGLVQAGGRLRLSCAASGRTFKLYAMGWYRQAPRKERELVAAITESGGSTYYADTVKGRFTISRDNAKNTVYLQMNILKPEDTAVDYCARVLQYQKRNDYEYWGQGTQVTVSS,low polyreactivity
19,QVQLVESGGGLVQAGGRLRLSCAASGRTFLRYAMGWYRQAPGKERELVAAISVSGGNTYYADSVKGRFTISRDNAKNTVYLQMNSLKPEDTAVYYCNKARLAAVFSYPYGYWGQGTQVTVSS,low polyreactivity
20,QVQLVESGGGLVQAGGRLRLSCAASGRTFNVNVMGWYRQAPGKERELVAAIRYTGGSTYADSVKGRFTISRDNAKNTVYLQMNSLKPEDTALYYCNADTFFPFDHGMDYWGQGTQVTVSS,low polyreactivity
21,QVQLVESGGGLVQAGGRLRLSCAASGRTFPIYAMGWYRQAPGKERELVAAITRGGRTNYADSVKGRFTISRDNAKNTVYLQMNSLKPEDTAVYYCAARTYGTYLYAEYDYWGQGTQVTVSS,high polyreactivity
